This assay concerns the target Luciferase (UniProt P08659 1-550 = luciferase, limits assumed). Briefly: pull-down: 1:1 mix, immunoprecipitation with anti-OVA antibody, western blot with anti-luciferase antibody. Here is the method:
Lanes with no chaperone (1st lane) were included as controls. […] In the bottom panel, WB was performed with anti-luciferase to confirm that OVA pull-down was successful.
After SDS-PAGE (10%) electrophoresis, western blot analysis was performed using anti-luciferase (Promega, Madison, Wis.) or anti-gp100 antibody (Santa Cruz Biotechnology, Santa Cruz, Calif.).
(In general: A western blot detects proteins with antibodies after separation by electrophoresis.)

Luciferase, sequence (P08659 whole entry): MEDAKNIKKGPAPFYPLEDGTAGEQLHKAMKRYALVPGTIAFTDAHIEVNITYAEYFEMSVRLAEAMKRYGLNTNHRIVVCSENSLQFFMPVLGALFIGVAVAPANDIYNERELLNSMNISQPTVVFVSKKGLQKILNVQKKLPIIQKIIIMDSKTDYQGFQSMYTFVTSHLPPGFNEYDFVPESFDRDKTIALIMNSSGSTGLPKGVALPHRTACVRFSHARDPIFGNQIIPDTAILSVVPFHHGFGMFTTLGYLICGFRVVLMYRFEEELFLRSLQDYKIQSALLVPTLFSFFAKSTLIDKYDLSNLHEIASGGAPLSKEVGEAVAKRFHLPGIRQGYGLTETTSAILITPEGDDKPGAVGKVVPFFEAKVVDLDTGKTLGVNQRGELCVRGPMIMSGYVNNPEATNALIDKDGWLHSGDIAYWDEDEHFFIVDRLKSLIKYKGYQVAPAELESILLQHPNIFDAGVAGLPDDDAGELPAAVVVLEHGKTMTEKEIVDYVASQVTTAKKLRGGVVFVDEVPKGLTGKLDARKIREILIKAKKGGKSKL

B1: Ovalbumin (other, UniProt P01012 2-386, looked up)
chain: GSIGAASMEFCFDVFKELKVHHANENIFYCPIAIMSALAMVYLGAKDSTRTQINKVVRFDKLPGFGDSIEAQCGTSVNVHSSLRDILNQITKPNDVYSFSLASRLYAEERYPILPEYLQCVKELYRGGLEPINFQTAADQARELINSWVESQTNGIIRNVLQPSSVDSQTAMVLVNAIVFKGLWEKAFKDEDTQAMPFRVTEQESKPVQMMYQIGLFRVASMASEKMKILELPFASGTMSMLVLLPDEVSGLEQLESIINFEKLTEWTSSNVMEERKIKVYLPRMKMEEKYNLTSVLMAMGITDVFSSSANLSGISSAESLKISQAVHAAHAEINEAGREVVGSAEAGVDAASVSEEFRADHPFLFCIKHIATNAVLFFGRCVSP
notes: Negative control protein
As for B1, the binding result is reported as “no binding”.

For the origin of these results see patent publication US20090142365A1 (HEALTH RESEARCH, published 2009).
